Laboratory results from the supplement of paper PMC7125110.
± gives the standard error. For some assays here: Fewer inactive variants are shown than the library holds.

B1: glmS ribozyme (parent)
chain: AUAAAAGCGCCAGAACUACAGAAAUGUAGUUGACGAGGAGGAGGUUUAUCGAAUUUUCGGCGGAUGCCUCCAAA

What was measured:
Settings in all cases: with glucosamine-6-phosphate
[1] = variants of: B1; assay: kcat; higher = faster cleavage; RNA array
Outline: (§1)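 The measurements used barcoded ribozyme variants on sequenced MiSeq chips, transcribed in situ by E. coli RNA polymerase and tracked at 37 °C with a hybridised Cy3 probe. Glucosamine-6-phosphate, 40 μM to 10 mM in HEPES/KCl/Mg(OAc)2 buffer, was flowed in while tiles were imaged over ~14 h. Baseline-normalised signals, also normalised to non-cleaving reference variants, gave per-tile medians that were fit to one- or two-exponential decays for kobs. kcat and KM resulted from weighted Michaelis–Menten fits across concentrations.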

[2] = variants of: B1; assay: self-cleavage kobs at 40 uM GlcN6P; higher = faster cleavage; RNA array
Outline: as §1

[3] = variants of: B1; assay: self-cleavage kobs at 160 uM GlcN6P; higher = faster cleavage; RNA array
Outline: as §1

[4] = variants of: B1; assay: self-cleavage kobs at 640 uM GlcN6P; higher = faster cleavage; RNA array
Outline: as §1

[5] = variants of: B1; assay: KM; higher = weaker cofactor use; RNA array
Outline: as §1

[6] = variants of: B1; assay: self-cleavage kobs at 10000 uM GlcN6P; higher = faster cleavage; RNA array
Outline: as §1

[7] = variants of: B1; assay: self-cleavage kobs at 2500 uM GlcN6P; higher = faster cleavage; RNA array
Outline: as §1

Variant | kcat [1] | self-cleavage kobs at 40 uM GlcN6P [2] | self-cleavage kobs at 160 uM GlcN6P [3] | self-cleavage kobs at 640 uM GlcN6P [4] | KM [5] | self-cleavage kobs at 10000 uM GlcN6P [6] | self-cleavage kobs at 2500 uM GlcN6P [7]
C16G C61U | < 1e-05 s⁻¹ | < 1e-05 s⁻¹ | < 1e-05 s⁻¹ | – | – | – | –
C16G C61A | 1.02e-05 ± 1.1e-06 s⁻¹ | – | – | – | – | – | –
C16U C50G A53U U55A | 3.66e-05 ± 1e-05 s⁻¹ | – | – | 4.65e-05 ± 2.2e-05 s⁻¹ | – | – | –
C16G A33G C71U | 1.51e-05 ± 7.7e-07 s⁻¹ | – | – | – | 137 ± 30 µM | < 1e-05 s⁻¹ | –
G29A G37C | 1.28e-05 ± 1.4e-06 s⁻¹ | – | – | – | – | – | –
C16A C58G | 3.2e-05 ± 7.1e-06 s⁻¹ | – | – | – | – | 2.59e-05 ± 8.5e-06 s⁻¹ | 4.47e-05 ± 1.2e-05 s⁻¹
C16U A33U C71G | 2.09e-05 ± 7.7e-06 s⁻¹ | – | – | – | – | – | –
A15U U69C | 0.000652 ± 0.00018 s⁻¹ | 5.12e-05 ± 1.2e-05 s⁻¹ | 8.72e-05 ± 1.3e-05 s⁻¹ | 0.000203 ± 2.7e-05 s⁻¹ | 1120 ± 510 µM | 0.000677 ± 0.00011 s⁻¹ | 0.000443 ± 7.7e-05 s⁻¹
C16A A48C | < 1e-05 s⁻¹ | < 1e-05 s⁻¹ | – | – | – | – | –
C16U U56G C68G | 5.74e-05 ± 1.5e-05 s⁻¹ | – | – | 9.61e-05 ± 2.8e-05 s⁻¹ | – | 6.1e-05 ± 1.3e-05 s⁻¹ | –
C16G A52U | 0.00015 ± 2.4e-05 s⁻¹ | – | – | – | 7790 ± 2700 µM | 8.41e-05 ± 1.5e-05 s⁻¹ | –
C16U U54C U69C | 0.0043 ± 0.0021 s⁻¹ | 0.000216 ± 7.7e-05 s⁻¹ | – | 0.000965 ± 0.00017 s⁻¹ | – | 0.00361 ± 0.0013 s⁻¹ | 0.00258 ± 0.00059 s⁻¹
G29A A48C | 3.13e-05 ± 8.9e-06 s⁻¹ | – | – | – | – | – | 3.4e-05 ± 1.6e-05 s⁻¹
C16U G38U C71U | 1.14e-05 ± 2e-06 s⁻¹ | – | – | – | – | – | –
G26U C67G | 0.000379 ± 7.2e-05 s⁻¹ | – | – | 0.000245 ± 8.1e-05 s⁻¹ | 901 ± 420 µM | 0.000395 ± 0.00012 s⁻¹ | 0.000254 ± 5.2e-05 s⁻¹
A15U U57C | 8.55e-05 ± 5e-06 s⁻¹ | – | < 1e-05 s⁻¹ | – | 4690 ± 680 µM | 5.82e-05 ± 8.1e-06 s⁻¹ | 2.97e-05 ± 8.8e-06 s⁻¹
A15U U57G | 1.7e-05 ± 6.8e-06 s⁻¹ | – | – | – | – | – | –
A15U U57A | 4.21e-05 ± 3.2e-07 s⁻¹ | – | – | – | 2340 ± 76 µM | 3.41e-05 ± 5.8e-06 s⁻¹ | –
C16G A39U | 0.00424 ± 0.00089 s⁻¹ | 6.4e-05 ± 7.3e-06 s⁻¹ | 0.000164 ± 2.2e-05 s⁻¹ | 0.000895 ± 0.00011 s⁻¹ | 3090 ± 880 µM | 0.00316 ± 0.00031 s⁻¹ | 0.00198 ± 0.00025 s⁻¹
C16A U45A | 0.00475 ± 0.0015 s⁻¹ | 7.33e-05 ± 1.3e-05 s⁻¹ | 0.000133 ± 3.5e-05 s⁻¹ | 0.000781 ± 0.00013 s⁻¹ | 3620 ± 1600 µM | 0.00331 ± 0.00052 s⁻¹ | 0.00222 ± 0.00037 s⁻¹
G29A C71A | 0.000446 ± 4.4e-05 s⁻¹ | – | – | 0.000233 ± 4e-05 s⁻¹ | 592 ± 140 µM | 0.000437 ± 0.00014 s⁻¹ | 0.000344 ± 0.0001 s⁻¹
G29A A64G | 0.0066 ± 0.0018 s⁻¹ | 0.000101 ± 2.6e-05 s⁻¹ | 0.000242 ± 6.6e-05 s⁻¹ | 0.000967 ± 0.00022 s⁻¹ | 3900 ± 1500 µM | 0.00532 ± 0.00092 s⁻¹ | 0.00217 ± 0.00041 s⁻¹
